{"source": "patent US20220042033A1", "about": "“COMPOSITION AND METHOD FOR CONFERRING AND/OR ENHANCING TOLERANCE AGAINST HERBICIDES BY USING VARIANTS OF PPO” (FarmHannong Co., Ltd., priority 2017, published 2022)", "molecules": {"B1": {"name": "A215L: ApPPO1 (SEQ ID NO: 1) variant (protein)", "chain": "MPFTHLKPLNRLLGSPRARHPHVAPQAVSVTNTSTTRPGGRSSAPGIPGDAEYDVVIVGAGISGLTTAQALAKQYSDAVPRLLVTEARDCVGGNIITRRDGGYQWEEGPNSFQPSDAVLRAAVDAGVADRLVLGDPKAPRYVYWGGRLRATPSGPDVLTFDLLSLWGKLRAGLGAAGFKAPLPEREESVKEFVTRNLGEEVFQRLIEPFCSGVYLGDPAKLSMKAAFGKVYDLEKGGGSIVGGVLALMKARKQKPPEPRPADLPPKPKGQTVGSFDKGLVTLPSAIAEELGDRVVTGWKLESIDRSGDRFQLTYDTPQGRKKVSARSVALTVPAYTAASLLESRFPKLGKALSSIYYPPVASVALSYPETAILPERLGSDGHLAGFGQLHPRTQGVTTLGTIYASSLFPGRVPEGKVLLLSYFGGATNTRVATMPHGEIVSQVDKDLRKMLIRSDAESPHTVNVTVWPRAIPQFNVGHTDLIQEAKDDLASQGWQGLHLGGNYVAGVALGKCMEAGYKQAAELASHVKSLAT", "modifications": "Synthetic (Protoporphyrinogen IX oxidase (ApPPO1) of Auxenochlorella protothecoides)"}, "B2": {"name": "V213C + Y422M: ApPPO1 (SEQ ID NO: 1) variant (protein)", "chain": "B1 chain with V213C, L215A, Y422M", "modifications": "Synthetic (Protoporphyrinogen IX oxidase (ApPPO1) of Auxenochlorella protothecoides)"}, "B3": {"name": "A215L + Y422M: ApPPO1 (SEQ ID NO: 1) variant (protein)", "chain": "B1 chain with Y422M", "modifications": "Synthetic (Protoporphyrinogen IX oxidase (ApPPO1) of Auxenochlorella protothecoides)"}, "B4": {"name": "A215C + Y422M: ApPPO1 (SEQ ID NO: 1) variant (protein)", "chain": "B1 chain with L215C, Y422M", "modifications": "Synthetic (Protoporphyrinogen IX oxidase (ApPPO1) of Auxenochlorella protothecoides)"}, "B5": {"name": "R140A + Y422M: ApPPO1 (SEQ ID NO: 1) variant (protein)", "chain": "B1 chain with R140A, L215A, Y422M", "modifications": "Synthetic (Protoporphyrinogen IX oxidase (ApPPO1) of Auxenochlorella protothecoides)"}, "B6": {"name": "Y422M: ApPPO1 (SEQ ID NO: 1) variant (protein)", "chain": "B1 chain with L215A, Y422M", "modifications": "Synthetic (Protoporphyrinogen IX oxidase (ApPPO1) of Auxenochlorella protothecoides)"}, "B7": {"name": "Y422I: ApPPO1 (SEQ ID NO: 1) variant (protein)", "chain": "B1 chain with L215A, Y422I", "modifications": "Synthetic (Protoporphyrinogen IX oxidase (ApPPO1) of Auxenochlorella protothecoides)"}, "B8": {"name": "Y422T: ApPPO1 (SEQ ID NO: 1) variant (protein)", "chain": "B1 chain with L215A, Y422T", "modifications": "Synthetic (Protoporphyrinogen IX oxidase (ApPPO1) of Auxenochlorella protothecoides)"}, "B9": {"name": "F209A + Y422M: ApPPO1 (SEQ ID NO: 1) variant (protein)", "chain": "B1 chain with F209A, L215A, Y422M", "modifications": "Synthetic (Protoporphyrinogen IX oxidase (ApPPO1) of Auxenochlorella protothecoides)"}, "B10": {"name": "V360M + Y422M: ApPPO1 (SEQ ID NO: 1) variant (protein)", "chain": "B1 chain with L215A, V360M, Y422M", "modifications": "Synthetic (Protoporphyrinogen IX oxidase (ApPPO1) of Auxenochlorella protothecoides)"}, "B11": {"name": "F386V + Y422M: ApPPO1 (SEQ ID NO: 1) variant (protein)", "chain": "B1 chain with L215A, F386V, Y422M", "modifications": "Synthetic (Protoporphyrinogen IX oxidase (ApPPO1) of Auxenochlorella protothecoides)"}, "B12": {"name": "L389T + Y422M: ApPPO1 (SEQ ID NO: 1) variant (protein)", "chain": "B1 chain with L215A, L389T, Y422M", "modifications": "Synthetic (Protoporphyrinogen IX oxidase (ApPPO1) of Auxenochlorella protothecoides)"}, "B13": {"name": "I402T + Y422M: ApPPO1 (SEQ ID NO: 1) variant (protein)", "chain": "B1 chain with L215A, I402T, Y422M", "modifications": "Synthetic (Protoporphyrinogen IX oxidase (ApPPO1) of Auxenochlorella protothecoides)"}, "B14": {"name": "V360I + Y422I: ApPPO1 (SEQ ID NO: 1) variant (protein)", "chain": "B1 chain with L215A, V360I, Y422I", "modifications": "Synthetic (Protoporphyrinogen IX oxidase (ApPPO1) of Auxenochlorella protothecoides)"}, "B15": {"name": "S362V + Y422I: ApPPO1 (SEQ ID NO: 1) variant (protein)", "chain": "B1 chain with L215A, S362V, Y422I", "modifications": "Synthetic (Protoporphyrinogen IX oxidase (ApPPO1) of Auxenochlorella protothecoides)"}, "B16": {"name": "R140A: ApPPO1 (SEQ ID NO: 1) variant (protein)", "chain": "B1 chain with R140A, L215A", "modifications": "Synthetic (Protoporphyrinogen IX oxidase (ApPPO1) of Auxenochlorella protothecoides)"}}, "note": "Positions count from the first letter of the chain named. Names and notes keep the numbering of the source.", "data": [{"system": "ApPPO1", "assay": "PPO enzyme activity of purified MBP-fused ApPPO1 wild type and variants", "format": "biochemical, Auxenochlorella protothecoides", "settings": "PPO enzyme activity relative to ApPPO1 wild type; MBP-fused protein", "description": "Thus, PPO proteins of wild type and variants were expressed as fused to MBP and were used for experiments.\nThe following process for purification of PPO protein was performed in a 4° C. cold room. […] The column was washed with 3 column volumes of buffer and the presence of protein in the washing solution was examined. When the protein was no longer detected, the washing procedure was terminated. Then, the MBP-PPO protein was eluted with approximately 2 column volumes of buffer containing 20 mM maltose. The protein concentration of each eluent was determined and the elution was stopped when the protein was no longer detected. Ten microliter of each fraction was investigated for protein quantification and SDS-PAGE analysis. The highly pure fractions of PPO protein variants were used for the enzyme assay.\nSince protoporphyrinogen IX, a substrate of PPO protein, was not commercially available, it was chemically synthesized in the laboratory. Overall process was performed in dark under nitrogen stream. […] of protoporphyrin IX was dissolved in 20 ml of 20% (v/v) EtOH, and stirred under dark condition for 30 minutes. The obtained protoporphyrin IX solution was put into a 15 ml screw tube in an amount of 800 μl, and flushed with nitrogen gas for 5 minutes. To this, 1.5 g of sodium amalgam was added and vigorously shaken for 2 minutes. The lid was opened to exhaust hydrogen gas in the tube. Thereafter, the lid was closed and incubated for 3 minutes. The protoporphyrinogen IX solution was filtered using syringe and cellulose membrane filter. To 600 μl of the obtained protoporphyrinogen IX solution, approximately 300 μl of 2M MOPS [3-(N-morpholino) propanesulfonic acid] was added to adjust pH to 8.0. To determine the enzyme activity of PPO protein, a reaction mixture was prepared with the following composition (based on 10 ml): 50 mM Tris-Cl (pH 8.0); 50 mM NaCl; 0.04% (v/v) Tween 20; 40 mM glucose (0.072 g); 5 units glucose oxidase (16.6 mg); and 10 units catalase (1 μl).\nHundred and eighty microliters of a reaction mixture […] were placed in 96 well plates and 20 μl of purified PPO proteins were added. After 50 μl of the mineral oil was layered, the reaction was initiated by adding the substrate, protoporphyrinogen IX solution, to a final concentration of 50 μM. The reaction proceeded at room temperature for 30 min and the fluorescence of protoporphyrin IX was measured using Microplate reader (Sense, Hidex) (excitation: 405 nm; emission: 633 nm). To calculate the PPO enzyme activity, the protoporphyrinogen IX solution was kept open in the air overnight to oxidize the solution. To this, 2.7 N HCl was added, and the absorbance at 408 nm was measured. A standard curve was generated using standard protoporphyrin IX, and PPO activity was measured by calibration of protoporphyrin IX using the standard curve of protoporphyrin IX.\nActivities of variants were presented relatively compared to that of wild type.", "units": {"Activity (%)": "%"}, "values": [{"molecule": "B1", "Activity (%)": 76}, {"molecule": "B2", "Activity (%)": 29}, {"molecule": "B3", "Activity (%)": 34}, {"molecule": "B4", "Activity (%)": 58}, {"molecule": "B5", "Activity (%)": 29}, {"molecule": "B6", "Activity (%)": 93}, {"molecule": "B7", "Activity (%)": 91}, {"molecule": "B8", "Activity (%)": 84}, {"molecule": "B9", "Activity (%)": 51}, {"molecule": "B10", "Activity (%)": 8}, {"molecule": "B11", "Activity (%)": 65}, {"molecule": "B12", "Activity (%)": 15}, {"molecule": "B13", "Activity (%)": 21}, {"molecule": "B14", "Activity (%)": 16}, {"molecule": "B15", "Activity (%)": 21}, {"molecule": "B16", "Activity (%)": 88}]}, {"system": "ApPPO1", "assay": "Herbicide tolerance test of ApPPO1 wild type and variants in PPO-deficient E. coli BT3(ΔPPO), growth on herbicide-containing LB agar", "format": "cell-based, Auxenochlorella protothecoides", "settings": "relative to ApPPO1 WT, dark, up to 100 μM (FIGS. 7-12)", "description": "(§1) Then, the extent of tolerance was evaluated.", "values": [{"molecule": "B2", "Herbicide tolerance, flumioxazin": "+++ (100-999 fold higher tolerance)"}, {"molecule": "B3", "Herbicide tolerance, flumioxazin": "+++++ (more than 10,000 fold higher tolerance)"}, {"molecule": "B4", "Herbicide tolerance, flumioxazin": "+++++ (more than 10,000 fold higher tolerance)"}, {"molecule": "B5", "Herbicide tolerance, flumioxazin": "++++ (1,000-9,999 fold higher tolerance)"}]}, {"system": "ApPPO1", "assay": "Herbicide tolerance test of ApPPO1 wild type and variants in PPO-deficient E. coli BT3(ΔPPO), growth on herbicide-containing LB agar", "format": "cell-based, Auxenochlorella protothecoides", "settings": "relative to ApPPO1 WT, dark, up to 200 μM (FIGS. 7-12)", "description": "as §1", "values": [{"molecule": "B2", "Herbicide tolerance, tiafenacil": "+++++ (more than 10,000 fold higher tolerance)"}, {"molecule": "B3", "Herbicide tolerance, tiafenacil": "+++++ (more than 10,000 fold higher tolerance)"}, {"molecule": "B4", "Herbicide tolerance, tiafenacil": "+++++ (more than 10,000 fold higher tolerance)"}, {"molecule": "B5", "Herbicide tolerance, tiafenacil": "++++ (1,000-9,999 fold higher tolerance)"}]}, {"system": "ApPPO1", "assay": "Herbicide tolerance test of ApPPO1 wild type and variants in PPO-deficient E. coli BT3(ΔPPO), growth on herbicide-containing LB agar", "format": "cell-based, Auxenochlorella protothecoides", "settings": "relative to ApPPO1 WT, dark, up to 400 μM (FIGS. 7-12)", "description": "as §1", "values": [{"molecule": "B2", "Herbicide tolerance, sulfentrazone": "++ (10-99 fold higher tolerance)"}, {"molecule": "B3", "Herbicide tolerance, sulfentrazone": "++++ (1,000-9,999 fold higher tolerance)"}, {"molecule": "B4", "Herbicide tolerance, sulfentrazone": "++++ (1,000-9,999 fold higher tolerance)"}, {"molecule": "B5", "Herbicide tolerance, sulfentrazone": "++++ (1,000-9,999 fold higher tolerance)"}]}, {"system": "ApPPO1", "assay": "Herbicide tolerance test of ApPPO1 wild type and variants in PPO-deficient E. coli BT3(ΔPPO), growth on herbicide-containing LB agar", "format": "cell-based, Auxenochlorella protothecoides", "settings": "relative to ApPPO1 WT, light, up to 10 μM (FIG. 5)", "description": "as §1", "values": [{"molecule": "B1", "Herbicide tolerance, pentoxazone": "++ (10-99 fold higher tolerance)"}]}, {"system": "ApPPO1", "assay": "Herbicide tolerance test of ApPPO1 wild type and variants in PPO-deficient E. coli BT3(ΔPPO), growth on herbicide-containing LB agar", "format": "cell-based, Auxenochlorella protothecoides", "settings": "relative to ApPPO1 WT, light, up to 10 μM (FIG. 6)", "description": "as §1", "values": [{"molecule": "B1", "Herbicide tolerance, pyraflufenethyl": "+++ (100-999 fold higher tolerance)"}]}, {"system": "ApPPO1", "assay": "Herbicide tolerance test of ApPPO1 wild type and variants in PPO-deficient E. coli BT3(ΔPPO), growth on herbicide-containing LB agar", "format": "cell-based, Auxenochlorella protothecoides", "settings": "relative to ApPPO1 WT, light, up to 25 μM (FIG. 3)", "description": "as §1", "values": [{"molecule": "B1", "Herbicide tolerance, sulfentrazone": "+++ (100-999 fold higher tolerance)"}]}, {"system": "ApPPO1", "assay": "Herbicide tolerance test of ApPPO1 wild type and variants in PPO-deficient E. coli BT3(ΔPPO), growth on herbicide-containing LB agar", "format": "cell-based, Auxenochlorella protothecoides", "settings": "relative to ApPPO1 WT, light, up to 25 μM (FIG. 4)", "description": "as §1", "values": [{"molecule": "B1", "Herbicide tolerance, Fomesafen": "+++ (100-999 fold higher tolerance)", "Herbicide tolerance, acifluorfen": "+++ (100-999 fold higher tolerance)"}]}, {"system": "ApPPO1", "assay": "Herbicide tolerance test of ApPPO1 wild type and variants in PPO-deficient E. coli BT3(ΔPPO), growth on herbicide-containing LB agar", "format": "cell-based, Auxenochlorella protothecoides", "settings": "relative to ApPPO1 WT, light, up to 100 μM (FIG. 2)", "description": "as §1", "values": [{"molecule": "B1", "Herbicide tolerance, saflufenacil": "++++ (1,000-9,999 fold higher tolerance)"}]}, {"system": "ApPPO1", "assay": "Herbicide tolerance test of ApPPO1 wild type and variants in PPO-deficient E. coli BT3(ΔPPO), growth on herbicide-containing LB agar", "format": "cell-based, Auxenochlorella protothecoides", "settings": "relative to ApPPO1 WT, light, up to 200 μM (FIG. 3)", "description": "as §1", "values": [{"molecule": "B1", "Herbicide tolerance, flumioxazin": "++++ (1,000-9,999 fold higher tolerance)"}]}]}
